From patent publication US20060062783A1

Biological target: T1, Rat PTH (1-84) (rat)
T1 sequence (peptide): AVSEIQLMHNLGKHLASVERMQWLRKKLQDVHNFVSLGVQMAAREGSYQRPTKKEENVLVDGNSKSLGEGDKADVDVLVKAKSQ
Experiment: ELISA on coated peptide; B cell supernatant

B1: anti-PTH mAb 168 (antibody, human IgG2, V domains shown)
VH: EVQLVQSGAEVKKPGESLKISCKGSRYIFTNYWIGWVRQMPGKGLEWMGIIYPGDSDTRYSPSFQGQVTISADMSISTAYLQWSSLKASDTAMYYCARQGDYVWGSFDSWGQGTLVTVSS
VL: DIVMTQTPLSLSVTPGQPASISCKSSQSLLDSDGKTYLYWYLQKPGQPPQLLIYEVSNRFSGVPDRFSGSGSGTDFTLKISRVEAEDVGVYYCMQSIQLWTFGQGTKVEIK
  OD: 0.19 OD450
